# Measurements reported in patent publication US20220389465A1, “METHODS OF REDUCING BIURET IN UREA COMPOSITIONS” (Regents of the University of Minnesota, priority 2019, published 2022).
# System: T1, NC(=O)NC(N)=O
# T1 construct: six-histidine tag (C); made in house; host or cells: Escherichia coli BL21(DE3)
# Assay: Inhibition of biuret hydrolase by urea, kinetic constants
# Format: biochemical
# biuret hydrolase (Rhizobium johnstonii 3841), sequence (chain, as listed by the source): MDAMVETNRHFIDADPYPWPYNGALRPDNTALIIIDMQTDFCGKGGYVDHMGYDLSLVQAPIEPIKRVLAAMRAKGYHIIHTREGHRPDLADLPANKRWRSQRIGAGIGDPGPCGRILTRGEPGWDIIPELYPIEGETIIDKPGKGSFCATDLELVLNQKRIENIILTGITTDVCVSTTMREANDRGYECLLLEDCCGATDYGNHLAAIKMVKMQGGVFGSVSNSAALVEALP
substance,measurement,value
biuret hydrolase (Rhizobium johnstonii 3841),Km,23 µM
